US20210292393A1 (published 2021)
Where a chain is given by its changes, count along the chain named.

B1: antibody 276 (antibody, V domains shown)
VH: QVQLQESGPGLVKPSQTLSLTCTVSGDSISSGGYYWSWIRQHPGKGLEWIGYIYYSGSAYYNPSLKSRVTISLDTSKNQFSLKLSSVTAADTAVYYCARDSVAGFSIFDYWGQGTLVTVSS
VL: SSELTQDPAVSVALGQTVRITCQGDSLRSYYASWYQQKPGQAPVRVIYGKNNRPSGIPDRFSGSSSGNTASLTITGAQAEDEADYYCNSWDSSGNHVVFGGGTKLTVL
B2: antibody 301 (antibody, V domains shown)
VH: QVQLVQSGAEVKKPGASVKVSCKVSGYTLTELSMHWVRQAPGKGLEWMGGFDPEDGETIYAQKFQGRVTMTEDTSTDTAYMELSSLRSEDTAVYYCATAFCGGDCYPPDALDIWGQGTMVTVSS
VL: DIQMTQSPSSVSASVGDRVTITCRASQGISSWLAWYQQKPGKAPKLLIYAASSLQSGVPSRFSGSGSGTDFTLTISSLQPEDFATYYCQQANSFPLTFGGGTKVEIK
B3: antibody 265 (antibody, V domains shown)
VH: EVQLVQSGAEVKKPGATVKVSCKFSGDTFSHYYIHWVQQAPGKGLEWMGLVDPQDGESEYAQKFQGKVTITADTSIDTSYLEVTSLRFDDTAFYFCATRGMSGAFDRWGQGTLVTVSS
VL: DIVMTQSPDSLAVSLGERATINCKSSQSILSTSNNKNYLAWYQQKPGQPPKLLIYWASTRESGVPDRFSGGGSGTDFTLTISSLQAEDVAVYYCQQYYRTAYTTPIYTFGQGTKLEIK
B4: antibody 295 (antibody, V domains shown)
VH: QVQLQESGPGLVKPSQTLSLTCTVSGGSISSSDYYWSWIRQPPGKGLEWIGYIYYSGSTYYNPSLKSRVTISVDTSKNQFSLKLSSVTAADTAVYYCARVVGYCSSTSCYVDYWGQGTLVTVSS
VL: EIVLTQSPATLSLSPGERVTLSCRASQSVSSYLAWYQQKPGQAPRLLIYDASNRATGIPARFSGSGSGTDFTLTISSLEPEDFAVYYCQQRSNWPPGLTFGGGTKVEIK
B5: antibody 288 (antibody, V domains shown)
VH: EVQLVESGGGLVQPGGSLRLSCAASGFTFSSYDMHWVRQATGKGLEWVSAIGTAGDTYYPGSVKGRFTISRENAKNSLYLQMNSLRAGDTAVYYCARGANRDYDILTGYYSYYYYGMDVWGQGTTVTVSS
VL: not shown
B6: antibody 300 (antibody, V domains shown)
VH: QVQLVESGGGVVQPGRSLTLSCAASGFTFSSYAMHWVRQAPGKGLEWVALISYDGNNKYYADSVKGRFTFSRDNSKNTLYLQMNSLRAEDTAVYYCARTNSGSYRTAFDYWGQGTLVTVSS
VL: DIQMTQSPSTLSASVGDRVTITCRASQSISIWLAWYQQKPGKAPKLLIYKASSLESGVPSRFSGSGSGTEFTLTISSLQPDDFATYYCQQYNSLWTFGQGTKVEIK
B7: antibody 273 (antibody, V domains shown)
VH: QVQLVQSGAEVKKPGASVKVSCKVSGYTLTELSMHWVRQAPGKGLEWMGGFDPEDGETIYAQKFQGRVTMTEDTSTDTAYMELSSLRSEDTAVYYCATAPGYYDSSAPQPINWFDPWGQGTLVTVSS
VL: QSALTQPASVSGSPGQSITISCTGTSSDVGSYNLVSWYQQHPGKAPKLMIYEVSKRPSGVSNRFSGSKSGNTASLTISGLQAEDEADYYCCSYAGSSTLVFGGGTKLTVL
B8: antibody 281 (antibody, V domains shown)
VH: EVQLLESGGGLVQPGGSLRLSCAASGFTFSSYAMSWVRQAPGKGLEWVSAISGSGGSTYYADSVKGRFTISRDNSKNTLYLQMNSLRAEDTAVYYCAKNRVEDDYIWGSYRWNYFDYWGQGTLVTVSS
VL: QSALTQPASVSGSPGQSITISCTGTSSDVGSYNLVSWYQQHPGKAPKLMIYEVSKRPSGVSNRFSGSKSGNTASLTISGLQAEDEADYYCCSYAGSSTHVVFGGGTKLTVL
B9: antibody 263 (antibody, V domains shown)
VH: EVQLVQSGAEVKKPGATVKISCKVSGYTFTDYYMHWVQQAPGKGLEWMGLVDPEDGETIYAEKFQGRVTITADTSTDTAYMELSSLRSDDTAVYYCTTDLAFTIFGGRRGFDPWGQGTLVTVSS
VL: DIQLTQSPSFLSASVGDRVTITCRASQGISSYLAWYQQKPGKAPKLLIYAASTLQSGVPSRFSGSGSGTEFTLTISSLQPEDFATYYCQQLNSYDFGQGTRLEIK
B10: antibody 294 (antibody, V domains shown)
VH: EVQLVESGGGLVQPGGSLRLSCAASGFTVSSNYMNWVRQAPGKGLEWVSVIYSGGSTYYADSVKGRFTISRDNSKNTLYLQMNSLRAEDTAVYYCARDLGPSGMDVWGQGTTVTVSS
VL: DIQMTQSPSSVSASVGDRVTITCRASQGISSWLAWYQQKPGKAPKLLIYAASSLQSGVPSRFSGSGSGTDFTLTISSLQPEDFATYYCQQANSFPLFGGGTKVEIK
B11: antibody 317 (antibody, V domains shown)
VH: QVQLVQSGAEVKKPGASVKVSCKVSGYTLTELSMHWVRQAPGKGLEWMGGFDPEDGETIYAQKFQGRVTMTEDTSTDTAYMELSSLRSEDTAVYYCASSPAAAGTSQYYYYYGMDVWGQGTTVTVSS
VL: not shown
B12: antibody 264 (antibody, V domains shown)
VH: QVHLVESGGGVVQPGRSLRLSCAASGFTLTSYAMHWVRQAPGKGLEWVALISYDGSVKKYAESVKGRITVSGDNSRNTLHLQINTLRADDTAVYYCVRGGVSGPNSFDLWGQGTMVTVSS
VL: DVVMTQSPLSLPVTLGQPASISCRSSQSLEYSDGNTYVNWFQQRPGQSPRRLIYQVSNRASGVPDRFSGSGSGTDFTLQISRVEAEDVGIYYCMQGTHWPVTFGQGTKVEIK
B13: antibody 303 (antibody, V domains shown)
VH: QVQLVESGGGVVQPGRSLRLSCAASGFNLSSYAMHWVRQASGKGLEWVSLISYDGSIKYYADSVKGRFTVSGDNSKNMLFLQMNSLRADDSALYYCVRGGVSGPNAFDIWGQGTTVTVSS
VL: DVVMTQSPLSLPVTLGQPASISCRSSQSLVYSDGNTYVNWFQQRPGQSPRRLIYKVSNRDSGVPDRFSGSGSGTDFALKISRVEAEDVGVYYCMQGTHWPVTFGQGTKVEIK
B14: antibody 266 (antibody, V domains shown)
VH: B13 VH with S31N, A40P, A61T, M78T, A88P, A106S, I109M
VL: B12 VL with E30V, N58I, T77A, Q79K, I90V
B15: antibody 316 (antibody, V domains shown)
VH: B12 VH with S31A, G44R, E62D, N74T, R76T, I83M, T85S
VL: B12 VL with I21M, Q42H, Q55K, N58Y, A60D
B16: antibody 260 (antibody, V domains shown)
VH: EVQLVESGGGLVQPGRSLRLSCAASGFTFDYYAMHWVRQAPGKGLEWVSGISWNSGTIGYADSVKGRFTISRDNAKNSLYLQMNSLRAEDTALYYCAKDSRPSGRYYYGMDVWGQGTTVTVSS
VL: not shown
B17: anti-SARS-CoV-2 antibody 923 (antibody, V domains shown)
VH: EVQLVESGGGVVRPGGSLRLSCAASGFIFDDYDMTWVRQAPGKGLEWVSGISWNGGNTGYADSVKGRFTISRDNAKNSLYLQMNSLRAEDTALYHCAVIMSPIPRYSGYDWAGGAFDIWGQGTMVTVSS
VL: B1 VL with A42V, V44I, R45L, G49D, W90R, H96A
B18: anti-SARS-CoV-2 antibody 933 (antibody, V domains shown)
VH: QVQLVQSGAEVKKPGASVKVSCKASGYTFTTYDINWVRQATGQGLEWMGWMNPNSGYTDSAQKFQGRVTMTRNTSISTAYMELSSLRSEDTAVYYCASGRGVKTYYFDYWGQGTLVTVSS
VL: SYELTQPPSVSVSPGQTASITCSGDKLGDKSACWYQQKPGQSPVLVICQDTKRPSGIPERFSGSNSGNTATLTISGTQAMDEADYYCQAWDSRTVVFGGGTKLTVL
B19: anti-SARS-CoV-2 antibody 1098 (antibody, V domains shown)
VH: DVQLVQSGAEVKKPGESLKISCKGSGYRFTSYWIAWVRQMPGKGLEWMGIIYPGDSDTRYSPSFQGQVTISADKSISTAYLQWSSLKASDTAMYYCASQAAAGYFYYMDVWGKGTTVTVSS
VL: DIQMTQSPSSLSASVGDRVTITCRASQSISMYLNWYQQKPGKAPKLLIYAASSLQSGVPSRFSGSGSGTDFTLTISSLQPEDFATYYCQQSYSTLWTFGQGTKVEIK
B20: anti-SARS-CoV-2 antibody 1009 (antibody, V domains shown)
VH: QLQLQESGPGLVKPSQTLSLTCTVSGGSISSGSYYWSWIRQPAGKGLEWIGSIYTSGSTYYNPSLKSRVTISVDTSKNQFSLKLSSVTAADTAVYYCARKNWLQGSFDYWGQGTLVIVSS
VL: NFMLTQPHSVSESPGKTVTISCTRSSGSIANNYVQWYQQRPGSAPTTVIYEDNQRPSGVPDRFSGSIDSSSNSASLTISGLKTEDEADYYCQSYDTSNHGVFGGGTKLTVL
B21: anti-SARS-CoV-2 antibody 1203 (antibody, V domains shown)
VH: QLRLQESGPGLVKPSETLSLTCTVSGGSISSSNFYWGWIRQPPGKGLEWIGSIYYSGSTHYNPSLKSRVTVSVDTSKNQFSLKLSSVTAADTAVYYCARLTYYYDSSGFIRAEPFDYWGQGILVTVSS
VL: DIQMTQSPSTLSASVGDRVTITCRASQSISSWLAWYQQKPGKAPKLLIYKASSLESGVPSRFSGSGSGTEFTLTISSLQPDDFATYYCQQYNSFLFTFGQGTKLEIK
B22: anti-SARS-CoV-2 antibody 1118 (antibody, V domains shown)
VH: EVQLVESGGGLVQPGGSLRLSCAASGFRFSNYEMNWVRQAPGKGLEWVSYISSTGGSIFYADSVKGRFTISRGDAKNSVYLQMNSLRAEDTAVYYCARAMYYYGSGTLDYWGQGTLVTVSS
VL: DIQMTQSPSSLSASVGDRVTITCRASQSISRFLNWYQQKPGTAPKLLIYDVSSLQSGVPTRFSGSGSGTDFTLTISSLQPEDFATYYCQQSYTTPPAFGPGTRVDIK
B23: antibody 288 (antibody, V domains shown)
VH: B5 VH
VL: not shown

Each binder was assayed against SARS-CoV-2 full length spike protein (wild type) (SARS-CoV-2, UniProt P0DTC2 14-1273) (assay: not given).

Binder | median fluorescence intensity, fold over isotype control [fold over isotype]
B1 | 9.24
B2 | 29.7
B3 | 21.4
B4 | 9.67
B5 | 24.3
B6 | 9.71
B7 | 16.9
B8 | 24.3
B9 | 22.5
B10 | 22.2
B11 | 11.2
B12 | 10.3
B13 | 9.59
B14 | 10.3
B15 | 10.7
B16 | 10.3

Each binder was assayed against SARS-CoV-2 spike protein (wild type), spike protein trimer (SARS-CoV-2, UniProt P0DTC2 14-1208) (assay: not given).

Binder | Kd [nM]
B17 | 0.035
B18 | 0.276
B19 | 0.173
B20 | 0.168
B21 | 0.302
B22 | 0.223

The binders below were run against SARS-CoV-2 full-length spike protein on pseudotyped lentivirus (SARS-CoV-2, UniProt P0DTC2 14-1273) (assay: cell-based or functional assay).

Binder | Pseudo-neutralization IC50 [µg/mL]
B17 | 0.093
B18 | 0.022
B19 | 0.087
B20 | 0.17
B21 | 0.02
B22 | 0.026

What follows are binders tested against SARS-CoV-2 full length spike protein (wild type) (SARS-CoV-2, UniProt P0DTC2 14-1208) (assay: not given).

Binder | binding signal, bead assay (fold over isotype)
B23 | 495
